From US20120114590A1 (priority 2005, published 2012)

How the values were obtained:
mouse B cells = assay: 3H-thymidine incorporation by mouse B cells; assay type: cell-based; settings: 72 hrs culture
Protocol: Mouse B cells were isolated from 2 Balb/C spleens (7 months old) by depleting CD43+ cells using MACS magnetic beads. Purified B cells were cultured in vitro with LPS, anti-IgM or anti-CD40 monoclonal antibodies. Mouse IL-28 or mouse IFNα was added to the cultures and ^3H-thymidine was added at 48 hrs. and ^3H-thymidine incorporation was measured after 72 hrs. culture.

[1] = test system: 293 HEK cells overexpressing zcytor19; assay: Inhibition of ligand-induced ISRE-luciferase signaling by soluble receptors; assay type: cell-based, human; settings: 10 ng/ml ligand, 10 micrograms/ml soluble receptor, 4-hour; relative to PBS alone
AML-12 cells = assay: ISG induction in the mouse liver cell line AML-12 (real-time PCR); assay type: cell-based; settings: AML-12, 20 ng/ml, 48 hour time point; mRNA relative to HPRT gene expression
Protocol: AML-12 cells were plated in 6-well plates in complete DMEM media at a concentration of 2×10^6 cells/well. […] As a control, cells were either stimulated with mouse IFNα (positive control) or unstimulated (negative). […] RNA was isolated from cell pellets using RNAEasy-kit® (Qiagen, Valencia, Calif.). RNA was treated with DNase (Millipore, Billerica, Mass.) to clean RNA of any contaminating DNA. cDNA was generated using Perkin-Elmer RT mix. ISG gene induction was evaluated by real-time PCR using primers and probes specific for mouse OAS, Pkr and Mx1. To obtain quantitative data, HPRT real-time PCR was duplexed with ISG PCR. A standard curve was obtained using known amounts of RNA from IFN-stimulated mouse PBLs. All data are shown as expression relative to internal HPRT expression.

[2] = test system: ISRE signaling in HepG2 cells; settings: 100 ng/ml ligand, 4-hour incubation; RLU over medium alone
adenoviral vector AdGFP = assay: Adenoviral vector (AdGFP) liver pathology model in C57Bl/6 mice; settings: AdGFP-infected C57Bl/6 mice, 50 μg i.p., 7 doses

B1: Zcyto24: mouse IL-28A (zcyto24), SEQ ID NO:8 (protein, listed as Mus musculus)
chain: MKPETAGGHMLLLLLPLLLAAVLTRTQADPVPRATRLPVEAKDCHIAQFKSLSPKELQAFKKAKDAIEKRLLEKDLRCSSHLFPRAWDLKQLQVQERPKALQAEVALTLKVWENMTDSALATILGQPLHTLSHIHSQLQTCTQLQATAEPRSPSRRLSRWLHRLQEAQSKETPGCLEASVTSNLFRLLTRDLKCVANGDQCV
- 3H thymidine incorporation by mouse B cells stimulated with anti-CD40 MAb (mouse B cells): increased
- 3H-thymidine incorporation by mouse B cells stimulated with LPS or anti-IgM (mouse B cells; IFNα at 10 ng/ml, mouse IL-28 any concentration tested including 1000 ng/ml): did not inhibit
- Percent Inhibition of Ligand-induced ISRE Signaling by HuCRF2-4-Fc [1]: 82%
- Percent Inhibition of Ligand-induced ISRE Signaling by Huzcytor19-Fc [1]: 90%
- Percent Inhibition of Ligand-induced ISRE Signaling by Huzcytor19-Fc/huCRF2-4-Fc [1]: 47%
- Percent Inhibition of Ligand-induced ISRE Signaling by Muzcytor19-Ig [1]: 89%
- Mx1 (AML-12 cells): 0.08
- OAS (AML-12 cells): 0.04
- PkR (AML-12 cells): 0.02
- Fold Induction of Cytokine-dependent ISRE Signaling in HepG2 Cells [2]: 4.7 fold
- liver histology: liver and inflammation scores versus PBS-treated group (adenoviral vector AdGFP): lower liver and inflammation scores
- average serum AST (adenoviral vector AdGFP; n=8): 193 U/L
- relative liver fluorescence (adenoviral vector AdGFP; n=8): 34.5 arbitrary units
- serum ALT (adenoviral vector AdGFP; n=8): 216 U/L
